Test results published in patent publication US12404328 (CULLINAN MANAGEMENT, dated 2025).

T1: monomeric CD19 extracellular domain (UniProt P15391 20-291, limits assumed)
T1 construct: extracellular domain; also called monomeric CD19 protein
T1 sequence (looked up): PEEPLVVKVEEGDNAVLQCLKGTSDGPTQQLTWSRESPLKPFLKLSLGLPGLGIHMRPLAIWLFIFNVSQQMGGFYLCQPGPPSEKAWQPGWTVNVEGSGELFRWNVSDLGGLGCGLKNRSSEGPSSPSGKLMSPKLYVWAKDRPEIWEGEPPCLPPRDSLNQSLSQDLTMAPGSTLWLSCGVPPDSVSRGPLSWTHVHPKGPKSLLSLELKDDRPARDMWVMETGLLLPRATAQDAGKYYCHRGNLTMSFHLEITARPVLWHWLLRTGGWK

T2: dimeric CD19 extracellular domain fused with human IgG1 Fc (human, UniProt P15391 20-291, limits assumed)
T2 construct: extracellular domain; also called dimeric CD19 protein; not shown: human IgG1 Fc
T2 sequence (looked up): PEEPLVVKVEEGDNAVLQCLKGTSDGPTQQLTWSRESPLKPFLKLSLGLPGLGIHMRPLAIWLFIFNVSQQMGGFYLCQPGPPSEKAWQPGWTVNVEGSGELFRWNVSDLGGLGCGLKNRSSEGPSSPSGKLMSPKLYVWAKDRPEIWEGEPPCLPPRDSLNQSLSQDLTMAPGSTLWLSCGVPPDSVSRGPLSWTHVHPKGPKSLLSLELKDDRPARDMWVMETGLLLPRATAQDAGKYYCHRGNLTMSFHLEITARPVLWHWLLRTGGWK


What was measured:
[1] = target: T1, monomeric CD19 extracellular domain; assay: SPR as printed, ForteBio instrument (per Estep et al. 2013); monomeric CD19 extracellular domain; monomeric CD19 protein
Procedure: (§1) As noted above, the constructs produced contained an anti-CD19 scFv having the amino acid sequence set forth in SEQ ID NO: 9 or 18. The binding affinity of the two CD19 binding domains to CD19 were measured by SPR using a monomeric CD19 extracellular domain and a dimeric CD19 extracellular domain fused with human IgG1 Fc. Binding kinetic parameters were measured using an instrument (available under the tradename ForteBio™ from Pall Corporation®) generally as previously described (see, Estep et al. (2013) MAbs, 5 (2): 270-78).

[2] = target: T2, dimeric CD19 extracellular domain fused …; assay: SPR as printed, ForteBio instrument (per Estep et al. 2013); dimeric CD19 extracellular domain-human IgG1 Fc; dimeric CD19 protein (IgG1 Fc fusion)
Procedure: as §1

Kd [1] [nM] | Kd [2] [nM] | Binder
7 | 5 | CD19 binding domain having the sequence of SEQ ID NO: 9 (scFv, also called Roche mAb scFv) scFv: QVQLVQSGAEVKKPGASVKVSCKASGYTFTDYIMHWVRQAPGQGLEWMGYINPYNDGSKYTEKFQGRVTMTSDTSISTAYMELSRLRSDDTAVYYCARGTYYYGPQLFDYWGQGTTVTVSSGGGGSGGGGSGGGGSDIVMTQTPLSLSVTPGQPASISCKSSQSLETSTGTTYLNWYLQKPGQSPQLLIYRVSKRFSGVPDRFSGSGSGTDFTLKISRVEAEDVGVYYCLQLLEDPYTFGQGTKLEIK
11 | 15 | CD19 binding domain having the sequence of SEQ ID NO: 18 (scFv, also called SG mAb scFv) scFv: QVQLQESGPGLVKPSQTLSLTCTVSGGSISTSGMGVGWIRQHPGKGLEWIGHIWWDDDKRYNPALKSRVTISVDTSKNQFSLKLSSVTAADTAVYYCARMELWSYYFDYWGQGTLVTVSSGGGGSGGGGSGGGGSEIVLTQSPATLSLSPGERATLSCSASSSVSYMHWYQQKPGQAPRLLIYDTSKLASGIPARFSGSGSGTDFTLTISSLEPEDFAVYYCFQGSVYPFTFGQGTKLEIKR
